Experimental findings from patent US20130150294A1 are described below.

The target in assay [1] is EYFP-rat α1 (rat) (UniProt P06685). The experiment in a line: FRET by acceptor photobleaching, 16 LLC-PK1 cells in six experiments.
Assay [2] has as its target EYFP-rat α1 mutant (D371E) (rat) (UniProt P06685). The experiment in a line: FRET by acceptor photobleaching, 20 TCN23-19 cells in three experiments.

Regarding Src-ECFP, the FRET efficiency lay in the range of 8.1 to 18.8 in assay [1] and 10.4 to 15.6 in assay [2]. For the same substance, the FRET efficiency (mean) in assay [1] and in assay [2] was 13.2 each time.
